Source: patent US20170037106A1 (FLOREY INSTITUTE OF NEUROSCIENCE AND MENTAL HEALTH, published 2017)
Square brackets hold non-standard residues; d marks the D form. Ends that are not written are not given here. hArg = N=C(N)NCCCC[C@H](N)C(=O)O

T1: RXFP1 (LGR7) receptor, on stably transfected HEK-293T cells (UniProt Q9HBX9 1-757, limits assumed)
T1 sequence (looked up): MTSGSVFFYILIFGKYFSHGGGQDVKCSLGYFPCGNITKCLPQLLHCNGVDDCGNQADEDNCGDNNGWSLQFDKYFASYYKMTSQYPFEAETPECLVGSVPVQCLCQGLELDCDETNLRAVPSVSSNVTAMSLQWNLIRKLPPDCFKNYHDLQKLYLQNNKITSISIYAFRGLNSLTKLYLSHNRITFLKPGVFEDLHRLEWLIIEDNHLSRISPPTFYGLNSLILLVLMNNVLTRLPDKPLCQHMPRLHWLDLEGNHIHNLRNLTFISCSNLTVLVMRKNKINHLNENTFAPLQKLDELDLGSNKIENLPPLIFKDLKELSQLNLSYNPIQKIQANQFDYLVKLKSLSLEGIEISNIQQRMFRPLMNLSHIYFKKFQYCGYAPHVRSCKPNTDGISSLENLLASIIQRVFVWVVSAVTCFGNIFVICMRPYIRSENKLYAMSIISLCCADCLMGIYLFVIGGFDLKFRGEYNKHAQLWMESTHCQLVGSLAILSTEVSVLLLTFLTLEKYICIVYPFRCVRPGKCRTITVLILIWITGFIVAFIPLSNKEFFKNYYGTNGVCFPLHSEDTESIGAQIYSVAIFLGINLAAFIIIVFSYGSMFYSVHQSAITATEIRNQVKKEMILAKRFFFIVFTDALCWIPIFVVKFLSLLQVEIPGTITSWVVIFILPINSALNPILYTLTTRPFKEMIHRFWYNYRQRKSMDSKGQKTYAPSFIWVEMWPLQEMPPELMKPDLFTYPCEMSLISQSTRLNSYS

T2: 7BP: fusion protein comprising the extracellular domain of RXFP1 and the transmembrane domain of CD8, on cells (UniProt Q9HBX9 1-409)
T2 construct: extracellular domain;domain: transmembrane domain; also called 7BP cells; not shown: transmembrane domain of CD8
T2 sequence (looked up): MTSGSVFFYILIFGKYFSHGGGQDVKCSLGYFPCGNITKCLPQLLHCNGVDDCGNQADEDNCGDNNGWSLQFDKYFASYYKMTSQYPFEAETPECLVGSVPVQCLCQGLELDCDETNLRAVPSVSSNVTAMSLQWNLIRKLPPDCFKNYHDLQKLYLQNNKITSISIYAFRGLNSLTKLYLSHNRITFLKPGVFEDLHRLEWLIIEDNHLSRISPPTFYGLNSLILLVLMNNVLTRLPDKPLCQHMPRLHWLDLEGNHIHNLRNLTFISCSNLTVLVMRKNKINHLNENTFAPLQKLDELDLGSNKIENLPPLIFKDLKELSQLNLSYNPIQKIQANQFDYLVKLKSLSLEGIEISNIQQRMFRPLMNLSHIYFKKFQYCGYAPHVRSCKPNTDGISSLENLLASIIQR

T3: RXFP1 (LGR7) receptor, on stably transfected HEK-293T cells (UniProt Q9HBX9)
T3 sequence (looked up): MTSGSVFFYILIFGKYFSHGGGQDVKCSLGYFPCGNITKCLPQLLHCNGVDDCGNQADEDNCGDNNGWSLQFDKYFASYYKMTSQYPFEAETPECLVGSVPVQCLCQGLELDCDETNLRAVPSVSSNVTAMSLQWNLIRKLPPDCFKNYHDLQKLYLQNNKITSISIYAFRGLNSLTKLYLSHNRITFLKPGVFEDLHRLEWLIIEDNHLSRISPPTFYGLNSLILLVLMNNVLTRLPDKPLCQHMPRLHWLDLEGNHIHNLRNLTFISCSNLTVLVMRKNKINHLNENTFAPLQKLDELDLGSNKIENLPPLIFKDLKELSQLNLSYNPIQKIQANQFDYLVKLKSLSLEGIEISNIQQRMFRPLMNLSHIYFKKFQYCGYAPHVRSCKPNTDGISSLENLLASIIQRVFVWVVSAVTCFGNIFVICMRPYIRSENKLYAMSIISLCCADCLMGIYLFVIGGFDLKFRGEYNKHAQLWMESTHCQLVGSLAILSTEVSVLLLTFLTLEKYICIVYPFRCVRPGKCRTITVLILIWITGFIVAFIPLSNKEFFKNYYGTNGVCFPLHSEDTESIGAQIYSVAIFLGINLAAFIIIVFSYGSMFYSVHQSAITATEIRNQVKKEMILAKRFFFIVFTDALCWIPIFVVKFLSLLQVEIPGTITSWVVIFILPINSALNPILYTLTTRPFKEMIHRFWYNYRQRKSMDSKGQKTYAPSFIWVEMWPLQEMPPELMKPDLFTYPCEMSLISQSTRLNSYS


Legend:
[1] = target: T1, RXFP1 (LGR7) receptor, on stably …; assay: cell-based or functional assay
[2] = target: T1, RXFP1 (LGR7) receptor, on stably …; assay: Eu-H2 relaxin competition, whole HEK-293T cells stably expressing RXFP1
Description: Human embryonic kidney (HEK-293T) cells stably transfected with RXFP1 were cultured in RPMI 1640 medium supplemented with 10% fetal calf serum, 100 μg/ml penicillin, 100 μg/ml streptomycin and 2 mM L-glutamine and plated into 96-well pre-coated with poly-L-lysine for whole cell binding assays. Competition binding experiments were conducted with Eu³⁺-labelled H2 relaxin (as per Shabanpoor et al., 2012, Biochem Biophys Res Commun. 420, 253-256) in the absence or presence of increasing concentrations of unlabelled relaxin-2 B chain derivatives. Nonspecific binding was determined with an excess of unlabelled peptides (500 nM H2 relaxin). Fluorescent measurements were recorded at an excitation wavelength of 340 nm and emission of 614 nm on a Victor plate reader (Perkin-Elmer Inc.). […] Statistical differences in pIC₅₀ values were analyzed using one-way analysis of variance coupled to Newman Keul's multiple comparison test for multiple group comparisons in GraphPad Prism 6.
#p < 0.001 vs H2 relaxin ¹Data are presented as the mean ± S.E of the percentage of the total specific binding of triplicate wells, repeated in at least three separate experiments, and curves were fitted using one-site binding curves in GraphPad Prism 6 (GraphPad Inc, San Diego, CA).

[3] = target: T2, 7BP: fusion protein comprising the …; assay: Eu-H2 relaxin competition on 7BP cells
[4] = target: T3, RXFP1 (LGR7) receptor, on stably transfected HEK-293T cells; assay: cell-based or functional assay

| Binder | cAMP pEC50 [1] [log M] | pKi [2] [log M] | pKi [3] [log M] | cAMP pEC50 [4] [log M] |
| --- | --- | --- | --- | --- |
| VIKLCGRELVRAQIAICGMSTWSKRSL-NH2 (not fully specified; printed as VIKLCGRELVRAQIAICGMSTWSKRSL-NH2; also: oxidised (ox), disulfide pattern not described, also called B7-33ox) [Native B7-33] | 5.11 | 6.15 |  |  |
| Ac-VIKLSGAELVAAQAAISGMSTWSKRSL-NH2 [R13/17A I20A (AcB7-33 C11.23S)] |  |  | 5.54 | < 5 |
| VIKLSGRELVKAQIAISGMSTWSKRSL-NH2 [B7-33 C11.23S R17K] | < 5 |  |  |  |
| DSWMEEVIKLCGRELVRAQIAICGMSTWSKRSL-NH2 (not fully specified (bridges); printed as DSWMEEVIKLCGRELVRAQIAICGMSTWSKRSL-NH2; cysteine pairing not given here) [B1-33ox] | < 5 | 6.61 |  |  |
| Ac-VIKLSGRELVRAQIAISGMSTWSKKKK-NH2 (AcB7-29 C11.23S with KKKK at the C-terminus in place of KRSL) [KKKK (AcB7-29 C11.23S)] | 5.81 | 6.25 | 8.91 |  |
| VIKLSGRELV[hArg]AQIAISGMSTWSKRSL-NH2 (N-terminus assumed; SMILES CC[C@H](C)[C@H](NC(=O)[C@H](C)NC(=O)[C@@H](NC(=O)[C@H](CCC(N)=O)NC(=O)[C@H](C)NC(=O)[C@H](CCCCNC(=N)N)NC(=O)[C@@H](NC(=O)[C@H](CC(C)C)NC(=O)[C@H](CCC(=O)O)NC(=O)[C@H](CCCNC(=N)N)NC(=O)CNC(=O)[C@H](CO)NC(=O)[C@H](CC(C)C)NC(=O)[C@H](CCCCN)NC(=O)[C@@H](NC(=O)[C@@H](N)C(C)C)[C@@H](C)CC)C(C)C)[C@@H](C)CC)C(=O)N[C@@H](CO)C(=O)NCC(=O)N[C@@H](CCSC)C(=O)N[C@@H](CO)C(=O)N[C@H](C(=O)N[C@@H](Cc1c[nH]c2ccccc12)C(=O)N[C@@H](CO)C(=O)N[C@@H](CCCCN)C(=O)N[C@@H](CCCNC(=N)N)C(=O)N[C@@H](CO)C(=O)N[C@@H](CC(C)C)C(N)=O)[C@@H](C)O) [B7-33 C11.23S R17HR] | < 5 | 6.52 |  |  |

The next lines start with the values.

| cAMP pEC50 [1] [log M] | pKi [2] [log M] | pKi [3] [log M] | cAMP pEC50 [4] [log M] | Binder |
| --- | --- | --- | --- | --- |
| 5.4 | 6 | 7.54 |  | Ac-VIKLSGRELVRAQIAISGMSTWSKRSL-NH2 [AcB7-33 C11.23S] |
|  |  | 6.01 | < 5 | Ac-VIKLSGRELVAAQIAISGMSTWSKRSL-NH2 [R17A (AcB7-33 C11.23S)] |
| 5.12 | 5.54 | 7.65 |  | VIKLSGRELVRAQIAISGMSTWSKRSL-NH2 (also called single chain B7-33 C11.23S peptide) [Modified B7-33 (B7-33 C11.23S)] |
| < 5 |  |  |  | Ac-VIKLSGRELVRAQAAISGMSTWSKRSL-NH2 [I20A (AcB7-33 C11.23S)] |
|  |  | 5.76 | < 5 | Ac-VIKLSGAELVRAQIAISGMSTWSKRSL-NH2 [R13A (AcB7-33 C11.23S)] |
| 5.1 | 5.33 |  |  | DSWMEEVIKLSGRELVRAQIAISGMSTWSKRSL-NH2 [B1-33 C11.23S] |
| < 5 |  |  |  | VIKLSGRELVRAQIAISGMSTWS-NH2 [B7-29 C11.23S] |
| 10.5 | 8.96 | 8.97 |  | native H2 relaxin (human relaxin-2, heterodimer of A chain and B1-29 B chain) (ligand, disulfide (positions not given here); ends not checked; also: three disulfides (two inter-chain, one within A chain), places not given here, mature; Two chains linked by three disulfide bonds (two inter-chain, one within the A chain); also called native human relaxin-2; Eu^3+-labelled H2 relaxin (tracer form)) chain 1: QLYSALANKCCHVGCTKRSLARFC chain 2: DSWMEEVIKLCGRELVRAQIAICGMSTWS |
